# According to patent US6797812B2, “Caspase-14, an apoptotic protease, nucleic acids encoding and methods of use” (Thomas Jefferson University, priority 1997, dated 2004):
# T1: mouse procaspase-14 (Mus musculus, UniProt O89094)
# T1 construct: made in house
# T1 sequence (O89094 1-257): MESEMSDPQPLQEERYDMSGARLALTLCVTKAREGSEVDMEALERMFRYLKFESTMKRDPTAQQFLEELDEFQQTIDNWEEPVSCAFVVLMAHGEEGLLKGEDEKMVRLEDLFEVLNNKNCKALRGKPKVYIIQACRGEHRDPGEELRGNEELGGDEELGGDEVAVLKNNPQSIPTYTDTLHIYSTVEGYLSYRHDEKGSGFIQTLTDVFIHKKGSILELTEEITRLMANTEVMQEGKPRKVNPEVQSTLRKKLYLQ
# B1: procaspase-14: proenzyme of caspase-14, a cell death specific cysteine protease of the caspase family (mouse SEQ ID NO:2) (protein)
# chain: KPDMESEMSDPQPLQEERYDMSGARLALTLCVTKAREGSEVDMEALERMFRYLKFESTMKRDPTAQQFLEELDEFQQTIDNWEEPVSCAFVVLMAHGEEGLLKGEDEKMVRLEDLFEVLNNKNCKALRGKPKVYIIQACRGEHRDPGEELRGNEELGGDEELGGDEVAVLKNNPQSIPTYTDTLHIYSTVEGYLSYRHDEKGSGFIQTLTDVFIHKKGSILELTEEITRLMANTEVMQEGKPRKVNPEVQSTLRKKLYLQ
# B2: caspase-14: purified recombinant caspase-14 material containing small amount of active caspase-14 (protein)
# chain: B1 chain
# B3: TRAIL: cytotoxic ligand TRAIL (protein, UniProt P50591 1-281, looked up)
# Tumor necrosis factor ligand …: MAMMEVQGGPSLGQTCVLIVIFTVLLQSLCVAVTYVYFTNELKQMQDKYSKSGIACFLKEDDSYWDPNDEESMNSPCWQVKWQLRQLVRKMILRTSEETISTVQEKQQNISPLVRERGPQRVAAHITGTRGRSNTLSSPNSKNEKALGRKINSWESSRSGHSFLSNLHLRNGELVIHEKGFYYIYSQTYFRFQEEIKENTKNDKQMVQYIYKYTSYPDPILLMKSARNSCWSKDAEYGLYSIYQGGIFELKENDRIFVSVTNEHLIDMDHEASFFGAFLVG
# B4: procaspase-3: small prodomain executioner procaspase used as control (protein, UniProt P42574 1-277, looked up)
# pro-form: MENTENSVDSKSIKNLEPKIIHGSESMDSGISLDNSYKMDYPEMGLCIIINNKNFHKSTGMTSRSGTDVDAANLRETFRNLKYEVRNKNDLTREEIVELMRDVSKEDHSKRSSFVCVLLSHGEEGIIFGTNGPVDLKKITNFFRGDRCRSLTGKPKLFIIQACRGTELDCGIETDSGVDDDMACHKIPVEADFLYAYSTAPGYYSWRNSKDGSWFIQSLCAMLKQYADKLEFMHILTRVNRKVATEFESFSFDATFHAKKQIPCIVSMLTKELYFYH
# modifications: pro-form
# notes: small prodomain executioner procaspase used as control
# Tests used:
# [1] = target: T1, mouse procaspase-14; assay: Processing of 35S labeled procaspase-14 by Granzyme B and purified recombinant caspases; type: biochemical; settings: Granzyme B 14 ng/μl or recombinant caspases 20 ng/μl, ICE buffer, 37° C., 1 h, FIG. 5B
# Protocol: Upon expression in bacteria, all procaspases are known to autoprocess to various degrees to generate the mature caspase which is composed of the large and small subunits. The observed auto-activation in bacterial overexpression systems is probably mediated by overexpression-induced oligomerization. […] To test this possibility procaspase-14 was incubated with Granzyme B which is known to process several caspase proenzymes. In addition procaspase-14 was incubated with different purified recombinant caspases.
# Processing of mouse procaspase-14 by Granzyme B and purified recombinant caspases was carried out under the following conditions: ^35S labeled procaspase-14 was incubated with purified Granzyme B (14 ng/μl) or the indicated purified recombinant caspases (20 ng/μl) in ICE buffer (25 mM Hepes, 1 mM EDTA, 5 mM DTT, 0.1% CHAPS, pH 7.5) at 37° C. for 1 h. The reactions were stopped by addition of an SDS-sample buffer and then the products were analyzed by SDS-PAGE and autoradiography.
# [2] = Autoprocessing of procaspases overexpressed in bacteria (SDS-PAGE, Coomassie); type: biochemical; settings: expressed in Escherichia coli, Talon-affinity purified, FIG. 5A
# [3] = system: S100 extracts from human embryonic kidney 293 cells; assay: Cytochrome c dependent processing of procaspases in S100 extracts; type: biochemical; settings: cytochrome c 50 ng/μl, dATP 1 mM, 30° C., 1 h, FIG. 6
# Protocol: To determine if caspase-14 was activated by a way of Apaf-1 and caspase-9, cytochrome c dependent activation was tested. ^35S labeled procaspase-3 (FIG. 6, lanes 1 & 2), procaspase-7 (FIG. 6, lanes 3 & 4), or procaspase-14 (FIG. 6, lanes 5 & 6) were incubated with S100 extracts from human embryonic kidney 293 cells in the absence (−) or presence (+) of cytochrome c (50 ng/μl) and dATP (1 mM) in buffer A (20 mM Hepes, 10 mM KCl, 1.5 mM MgCl2, 1 mM EDTA, 1 mM EGTA, 1 mM DTT, 0.1 mM PMSF, pH 7.5) at 30° C. for 1 h. The reaction products were then analyzed by SDS-PAGE and autoradiography.
# [4] = system: MCF-7 cells; assay: Overexpression of procaspases in MCF-7 cells, morphological signs of apoptosis; type: cell-based; settings: transient transfection, X-gal staining 30 h after transfection, FIG. 4
# Excerpt: On the other hand overexpression of the large prodomain initiator procaspases such as procaspase-8 can induce apoptosis, due to their ability to undergo prodomain-mediated oligomerization. To test the ability of procaspase-14 to induce apoptosis in transfected cells, MCF-7 cells were transiently transfected with procaspase-14 in a PRSC lac-Z expression construct under the CMV promoter. Cells were also transfected with an empty vector or constructs encoding procaspase-3, -6, -8, or -10 as controls. The cells were stained with X-gal 30 h after transfection and examined for morphological signs of apoptosis The percentage of round blue apoptotic cells (mean±SD) were represented as a function of total blue cells under each condition (n≧3). SD was less than 5%.
# [5] = system: procaspase-7; assay: Processing of endogenous procaspase-7 in MCF-7-FAS cells after anti-Fas antibody or TRAIL; type: cell-based; settings: treated for 3 h, FIG. 5C
# Protocol: (§1) Since caspase-8 and -10 are initiator caspases that are activated by oligomerization of the death receptors (i.e., Fas, TRAIL-R) by their ligands or agonist antibodies, the possibility that procaspase-14 is processed in vivo after induction of apoptosis by anti-Fas antibody or the cytotoxic ligand TRAIL was tested. A mammalian expression construct encoding N-terminal T7-tagged procaspase-14 was transfected into MCF-7-FAS cells. The cells were treated 36 h after transfection with agonist anti-Fas antibody or TRAIL for 3 h. Cells were harvested and lysed by addition of SDS-sample buffer. The cellular proteins were analyzed by SDS-PAGE and then immunoblotted with an anti-T7 HRP-conjugated monoclonal antibody (FIG. 5C, left panel) to detect procaspase-14. The same samples were also immunoblotted with a polyclonal antibody (anti-Mch3α) that preferentially detects the proform of caspase-7 (FIG. 5C, middle panel), or a mixture of the anti-Mch3α antibody and CM-1 antibody that preferentially detects the processes fragments of caspase-7 (FIG. 5C, right panel) to detect the endogenous caspase-7. Pro indicates the proenzyme, LS indicates the large subunit and SS indicates the small subunit. […] The cleavage products of procaspase-14 were not clearly detectable probably due to loss of the epitope tag after processing of the small prodomain of procaspase-14 at Asp7 or Asp 17. […]
# [6] = system: procaspase-14; assay: Processing of T7-tagged procaspase-14 in MCF-7-FAS cells after anti-Fas antibody or TRAIL; type: cell-based; settings: treated 36 h after transfection for 3 h, FIG. 5C
# Protocol: as §1
Molecule,processing of procaspase-14 [1],processing of the proenzyme on overexpression in bacteria [2],induction of apoptosis (round blue apoptotic cells as a function of total blue cells) [4],also measured
Granzyme B: purified protease known to process several caspase proenzymes,significant amount of processing,,,
B1,,no significant processing,unable to induce any significant amount of apoptosis,cleavage/activation in S-100 extracts activated by cytochrome c and dATP [3]: no cleavage/activation
B2,Some processing,,,
B3,,,,processing of procaspase-7 (decreased intensity of proenzyme band) [5]: able to induce processing; processing of procaspase-14 (decreased intensity of proenzyme band) [6]: able to induce processing
B4,,completely processes,unable to induce any significant amount of apoptosis,
